Assay [1] deals with T1, EGFR-Fc (#344-ER, R&D Systems) (UniProt P00533 25-645).
T1 construct: Bought reagent; not shown: Fc part of the bought fusion; not described
Briefly: SPR (Biacore T100), MEH3-01S captured by human Fab binder on CM5 chip, EGFR-Fc injected. How it is done:
(§1) The affinity of the anti-c-Met/anti-EGFR/anti-HER3 multispecific antibody prepared in Example 2 to EGFR and HER3 was measured. A human Fab binder (GE Healthcare) was immobilized at the surface of a CM5 chip (#BR-1005-30, GE) according to the manufacturer's specifications. About 90 to 120 RU of the MEH3-01S was captured, and the EGFR-Fc(#344-ER, R&D Systems) or HER3-Fc(#344-ER, R&D Systems) was injected at various concentrations into the captured antibody. 10 mM Glycine-HCl (pH 1.5) solution was injected thereto to regenerate the surface.
(§2) To examine affinity of the antibody, the data obtained from this experiment was fitted using BIAevaluation software (GE Healthcare, Biacore T100 evaluation software).
Background: In SPR one partner is held on a chip, and binding of the other changes the refractive index at the surface.

Assay [2] addresses T2, HER3-Fc (#344-ER, R&D Systems) (UniProt P21860 20-643).
T2 construct: Bought reagent; not shown: Fc part of the bought fusion; not described
Briefly: SPR (Biacore T100), MEH3-01S captured by human Fab binder on CM5 chip, HER3-Fc injected. The method, then:
as §1, §2

Assay [3] concerns the target T3, human c-Met/Fc fusion protein (R&D Systems) (human, UniProt P08581 25-932).
T3 construct: Bought reagent, coated on ELISA plates; also called human c-Met/Fc protein; not shown: Fc part of the bought fusion; not described
Description: ELISA, hybridoma culture on plate-bound human c-Met/Fc fusion protein. The method, then:
The hybridoma cell culture obtained in Reference Example 1.1.2 was added in an amount of 50 μL to each well of the plates and incubated for 1 hour. The cells remaining unreacted were washed out with a sufficient amount of Tris-buffered saline and Tween 20 (TBST). Goat anti-mouse IgG-horseradish peroxidase (HRP) was added to the plates and incubated for 1 hour at room temperature. The plates were washed with a sufficient amount of TBST, followed by reacting the peroxidase with a substrate (OPD). Absorbance at 450 nm was measured on an ELISA reader.
A general note: An ELISA detects its analyte on a solid surface through an enzyme-linked reagent.

T2 sequence (P21860 20-643 limits assumed): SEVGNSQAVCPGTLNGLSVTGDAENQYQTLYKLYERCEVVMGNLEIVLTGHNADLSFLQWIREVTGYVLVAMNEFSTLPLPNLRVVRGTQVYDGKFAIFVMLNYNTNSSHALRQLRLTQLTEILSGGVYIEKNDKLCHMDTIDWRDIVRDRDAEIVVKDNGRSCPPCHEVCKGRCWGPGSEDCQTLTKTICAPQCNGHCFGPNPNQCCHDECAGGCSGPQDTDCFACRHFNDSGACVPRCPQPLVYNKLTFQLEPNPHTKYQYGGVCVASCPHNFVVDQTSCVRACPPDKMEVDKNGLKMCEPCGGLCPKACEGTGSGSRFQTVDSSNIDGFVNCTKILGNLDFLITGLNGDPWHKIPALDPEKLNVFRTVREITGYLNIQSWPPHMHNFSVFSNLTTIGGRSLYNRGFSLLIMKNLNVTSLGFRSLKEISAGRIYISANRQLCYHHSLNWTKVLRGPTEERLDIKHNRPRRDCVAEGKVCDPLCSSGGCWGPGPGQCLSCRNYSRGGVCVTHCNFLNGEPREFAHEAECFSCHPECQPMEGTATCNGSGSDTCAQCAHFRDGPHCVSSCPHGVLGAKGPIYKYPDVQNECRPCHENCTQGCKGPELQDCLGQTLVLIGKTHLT
T3 sequence (P08581 25-932 limits assumed): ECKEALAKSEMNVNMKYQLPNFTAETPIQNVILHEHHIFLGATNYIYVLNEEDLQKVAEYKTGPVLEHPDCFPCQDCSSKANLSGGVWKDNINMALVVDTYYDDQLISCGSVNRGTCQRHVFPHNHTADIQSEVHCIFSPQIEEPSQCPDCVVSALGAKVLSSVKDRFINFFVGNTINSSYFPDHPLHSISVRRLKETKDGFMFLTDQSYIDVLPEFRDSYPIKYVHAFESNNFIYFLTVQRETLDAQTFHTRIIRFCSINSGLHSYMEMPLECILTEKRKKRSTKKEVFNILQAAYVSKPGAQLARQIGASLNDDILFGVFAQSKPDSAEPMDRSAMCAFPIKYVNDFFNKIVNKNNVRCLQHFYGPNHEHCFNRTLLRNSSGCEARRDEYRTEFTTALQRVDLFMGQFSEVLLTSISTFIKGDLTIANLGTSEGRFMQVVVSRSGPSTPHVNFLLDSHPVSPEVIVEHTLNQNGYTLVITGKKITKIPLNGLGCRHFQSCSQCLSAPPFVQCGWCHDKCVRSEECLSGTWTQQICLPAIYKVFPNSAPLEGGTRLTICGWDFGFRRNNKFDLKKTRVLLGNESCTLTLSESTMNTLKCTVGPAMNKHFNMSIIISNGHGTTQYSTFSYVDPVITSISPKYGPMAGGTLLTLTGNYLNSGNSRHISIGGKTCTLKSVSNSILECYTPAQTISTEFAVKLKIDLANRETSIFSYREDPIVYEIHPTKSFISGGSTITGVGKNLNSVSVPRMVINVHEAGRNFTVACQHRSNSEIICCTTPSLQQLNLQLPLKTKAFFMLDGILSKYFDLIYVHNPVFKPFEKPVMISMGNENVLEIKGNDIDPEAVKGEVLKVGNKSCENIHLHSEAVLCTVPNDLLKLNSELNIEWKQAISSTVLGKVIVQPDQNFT

B1: anti-c-Met/anti-EGFR/anti-HER3 multispecific antibody MEH3-01S (bispecific antibody, human IgG2, kappa)
heavy: EVQLVESGGGLVQPGGSLRLSCAASGFTFTDYYMSWVRQAPGKGLEWLGFIRNKANGYTTEYSASVKGRFTISRDNSKNTLYLQMNSLRAEDTAVYYCARDNWFAYWGQGTLVTVSSASTKGPSVFPLAPCSRSTSESTAALGCLVKDYFPEPVTVSWNSGALTSGVHTFPAVLQSSGLYSLSSVVTVPSSNFGTQTYTCNVDHKPSNTKVDKTVERKCCVECPPCPAPPVAGPSVFLFPPKPKDTLMISRTPEVTCVVVDVSHEDPEVQFNWYVDGVEVHNAKTKPREEQFNSTFRVVSVLTVVHQDWLNGKEYKCKVSNKGLPAPIEKTISKTKGQPREPQVYTLPPSREEMTKNQVSLTCLVKGFYPSDIAVEWESNGQPENNYKTTPPMLDSDGSFFLYSKLTVDKSRWQQGNVFSCSVMHEALHNHYTQKSLSLSPGKGGGGSGGGGSGGGGSEVQLVESGGGLVQPGGSLRLSCAASGFTLSGDWIHWVRQAPGKCLEWVGEISAAGGYTDYADSVKGRFTISADTSKNTAYLQMNSLRAEDTAVYYCARESRVSFEAAMDYWGQGTLVTVSSGGGGSGGGGSGGGGSDIQMTQSPSSLSASVGDRVTITCRASQNIATDVAWYQQKPGKAPKLLIYSASFLYSGVPSRFSGSGSGTDFTLTISSLQPEDFATYYCQQSEPEPYTFGCGTKVEIK
light: DIQMTQSPSSLSASVGDRVTITCKSSQSLLASGNQNNYLAWYQQKPGKAPKMLIIWASTRVSGVPSRFSGSGSGTDFTLTISSLQPEDFATYYCQQSYSRPYTFGQGTKVEIKRTVAAPSVFIFPPSDEQLKSGTASVVCLLNNFYPREAKVQWKVDNALQSGNSQESVTEQDSKDSTYSLSSTLTLSKADYEKHKVYACEVTHQGLSSPVTKSFNRGEC
notes: DL11f scFv fused to the C-terminus of the heavy chain (Fc) of the anti-c-Met IgG2 antibody SAIT301
In general, Kd refers to the equilibrium constant for the complex coming apart. A lower Kd goes with higher affinity. What is called koff is the rate constant with which the complex falls apart. Read a low koff as slow dissociation. What is called kon is the second-order rate constant of association. A high value points to fast association. For B1, in assay [1], the equilibrium dissociation constant (Kd) is 0.18 nM, the koff came out at 0.00011 s⁻¹ and the on-rate constant (kon) came to 1e+06 M⁻¹ s⁻¹. Besides, in assay [2], the Kd is less than 0.01 nM, the koff was less than 1.6e-05 s⁻¹ and the association rate constant (kon) worked out at 3.4e+06 M⁻¹ s⁻¹.

B2: AbF46, a mouse antibody to c-Met (antibody, V domains shown)
VH: EVKLVESGGGLVQPGGSLRLSCATSGFTFTDYYMSWVRQPPGKALEWLGFIRNKANGYTTEYSASVKGRFTISRDNSQSILYLQMDTLRAEDSATYYCARDNWFAYWGQGTLVTVSA
VL: DILMTQSPSSLTVSAGEKVTMSCKSSQSLLASGNQNNYLAWHQQKPGRSPKMLIIWASTRVSGVPDRFIGSGSGTDFTLTINSVQAEDLAVYYCQQSYSAPLTFGAGTKLELK
notes: Tested as hybridoma culture supernatant in the selection ELISA; also called monoclonal antibody of hybridoma KCLRF-BP-00220
Take B2: the binding result in assay [3] is recorded as “binds”.

The record behind these values is patent publication US20150322165A1 (SAMSUNG ELECTRONICS, published 2015).
